Legend:
[1] = target: iC3b (human); experiment: SPR; iC3b immobilised on a CM5 chip by maleimide coupling via Cys988; αI variants as analyte, 5 injections at 0.32-26.0 μM; 10 mM HEPES-NaOH pH 7.4, 100 mM NaCl, 5 mM MgCl2; 25 °C; steady-state analysis of maximum RU, apparent KD (saturation not reached)
[2] = target: CR3 αI domain (von Willebrand A inserted domain of the αM chain of CR3), residues 126-321, C128S/I316G (human) (UniProt P11215); experiment: SPR; Biacore X100; CR3 αI biotinylated (NHS-PEG4-biotin) and captured on a streptavidin chip, ~900 RU; initial single-concentration injections, then 5 injections of iC3b (0.1-10.0 uM) or C3c (0.7-60.0 uM); 10 mM HEPES-NaOH pH 7.4, 100 mM NaCl, 5 mM MgCl2; 25 °C; steady-state model, saturation not reached, apparent KD
[3] = target: C3c (UniProt P01024 955-1303); experiment: as above; settings: both partners purified
[4] = target: human iC3b (human) (UniProt P01024); experiment: SEC + other: SAXS; iC3b mixed with CR3 αI at 1:2 molar ratio, Superdex 200 10/300 GL, 20 mM HEPES-NaOH pH 7.5, 200 mM NaCl, 5 mM MgCl2; SAXS in continuous-flow batch mode at 4 °C
[5] = target: human iC3b (human) (UniProt P01024); experiment: SPR; Biacore X100; iC3b immobilised on CM5 chip by maleimide chemistry through Cys988; αI variants as analyte (5 injections at 0.32-26.0 uM); 10 mM HEPES-NaOH pH 7.4, 100 mM NaCl, 5 mM MgCl2; 25 °C; steady-state analysis, apparent KD

Molecule: CR3 αI domain variant 1A2A (R216A/K231A/R261A/R293A) (from UniProt P11215 142-337) (domain or fragment)
- Kd [1]: 64.7 µM

Molecule: CR3 αI domain variant 1A (R261A/R293A) (from UniProt P11215 142-337) (domain or fragment)
- Kd [1]: 16.8 µM

Molecule: CR3 αI domain variant 2A (R216A/K231A) (from UniProt P11215 142-337) (domain or fragment)
- Kd [1]: 27.5 µM

Molecule: human iC3b (from UniProt P01024 749-1303) (complex)
- Kd [2]: 5.2 µM

B1: CR3 αI domain (von Willebrand A inserted domain of the αM chain of CR3), residues 126-321, C128S/I316G (domain or fragment)
chain: RGSPQEDSDIAFLIDGSGSIIPHDFRRMKEFVSTVMEQLKKSKTLFSLMQYSEEFRIHFTFKEFQNNPNPRSLVKPITQLLGRTHTATGIRKVVRELFNITNGARKNAFKILVVITDGEKFGDPLGYEDVIPEADREGVIRYVIGVGDAFRSEKSRQELNTIASKPPRDHVFQVNNFEALKTIQNQLREKGFAIEG
modifications: NHS-PEG4-biotin on random amine groups (only in the SPR where CR3 αI was captured on the streptavidin chip)
notes: Made in bacteria, so not glycosylated at Asn224; also called WT; not shown: His6, N-terminal, cleaved
- Kd [3]: ~39 µM
- stoichiometry N [4]: 1
- Kd [5]: 7.1 µM

Source: PMC9005620, “The crystal structure of iC3b-CR3 αI reveals a modular recognition of the main opsonin iC3b by the CR3 integrin receptor” (Nature Communications, 2022)
